Test results: patent publication US9616101B2, “Differentiation marker and differentiation control of eye cell” (Kyoto Prefectural Public University Corporation, priority 2012, dated 2017)
“Also recorded” adds a separate entry of the source.

How the values were obtained:
[1] = tested on: cultured monkey corneal endothelial cell; assay: Detection of proliferating cells with Click-iT EdU Imaging Kit after R-spondin 1 addition; assay type: cell-based, cynomolgus monkey; conditions: 10 ng/ml or 50 ng/ml R-spondin 1; almost confluent cells; 48 hours after addition
Protocol: After addition of an R-spondin 1 protein to a cultured monkey corneal endothelial cell and culturing for 48 hours, a cell during proliferation was detected using the Click-iT Edu imaging Kit, and the positivity rates of EdU and the cell densities of a control cell and a cell to which R-spondin 1 was added were compared.
EdU (5-ethynyl-2′-deoxyuridine) is a modified nucleic acid taken into DNA at a DNA synthesis phase by a chemical reaction, and is widely used in place of a conventional BrdU for identifying a DNA synthesis phase cell. By measuring the positivity rate of EdU, the proliferative cell rate in a cultured cell is found.
(§1) A cultured monkey corneal endothelial cell (Lot. 20111222-4 P2) was treated with 0.05% trypsin at 37° C. for 10 minutes, peeled from a T-25 flask, and suspended in a culture medium (10% FBS+bFGF/DMEM). The number of cells was counted, and the suspension was adjusted with a culture medium to 3×10^4 cells/300 μl. Cells were seeded on a Lab-TekII chamber Slide (8 well) coated with FNS, in 300 μl/well.
At 7 days after cell seeding, a medium was exchanged with a medium containing R-spondin 1 (0, 10, 50 ng/ml) in the state where cells were almost confluent, and at 24 hours after addition of R-spondin 1, Click-iT EdU was added so that the final concentration was 10 μM. […]

[2] = tested on: cultured monkey corneal endothelial cell; assay: Cell density measurement (Konan KSS-400EB) after R-spondin 1 addition; assay type: cell-based, cynomolgus monkey; conditions: 10 ng/ml or 50 ng/ml R-spondin 1; 48 hours after addition
Protocol: as §1
At 7 days after cell seeding, a medium was exchanged with a medium containing R-spondin 1 (0, 10, 50 ng/ml) in the state where cells were almost confluent, and at 24 hours after addition of R-spondin 1, Click-iT EdU was added so that the final concentration was 10 μM. (Although a manual of Kit recommended that a half of a medium was exchanged, a medium was not exchanged) After additional 24 hours (48 hours after addition of R-spondin 1), cells were fixed with 4% PFA/PBS, EdU was detected according to a manual of Kit, and the EdU-positive cell rate was counted (FIGS. 8 and 9).
A chamber slide after staining was photographed with a phase contrast microscope, and the cell density was measured using the corneal endothelial cell density calculating software, Konan Storage System KSS-400EB (FIG. 10).

[3] = tested on: cultured human corneal endothelial cell; assay: Culture of human corneal endothelial cells with or without RSPO: cell morphology and cell density; assay type: cell-based
Description: GPR49/LGR5 was an orphan receptor of a G protein-coupled receptor superfamily, and a ligand thereof was not known previously. […] In order to determine the function of RSPO on CEC differentiation, the present inventors cultured primate CEC with human recombinant RSPO, or without human recombinant RSPO. […] In order to determine the function of RSPO on CEC proliferation, the present inventors performed immunohistochemical research on Ki67. […] In view of these findings, the present inventors considered that among a RSPO family, particularly, RSPO1 can play an important role in maintenance of CEC.
Finally, in order to further determine influence of RSPO1 on CEC, the present inventors maintained a secondary culture of human CEC in the presence or absence of RSPO1. […] The cell density of a RSPO1-treated cell increased as compared with that of a non-treated cell (FIG. 6B-E). In order to verify which pathway regulated this type of corneal endothelial MT, the present inventors investigated the expression level of a Wnt/β-catenin-associated molecule using Western blotting analysis. […] Further, the protein level of a cell transfected with NT and GPR49/LGR5 and treated with RSPO1 decreased as compared with that of a cell group not treated with RSPO1 (FIG. 6B-F).
A cultured human corneal endothelial cell was cultured for 7 days under conditions of 37° C. and 5% CO2, with being divided into a group of addition of RSPO1 (50 ng/ml) and a group of addition of no RSPO1. […] From the above result, the effect of suppressing differentiation of a corneal endothelial cell was recognized in RSPO1.

[4] = tested on: cytosol β-catenin and p-LRP6; assay: Western blotting of Wnt/β-catenin-associated molecules in human CEC with or without RSPO1; assay type: cell-based
Description: For Western blotting, the following rabbit polyclonal antibodies: anti-LRP6, p-LRP6 (Cell Signaling Technology, Inc., Beverly, Mass.), as well as the following mouse monoclonal antibodies: β-catenin (BD Biosciences) and β-actin (Sigma-Aldrich, St. Louis, Mo.); were used. As a secondary antibody, HRP-labeled anti-rabbit or mouse IgG (GE Healthcare, Piscataway, N.J.) was used. Recombinant human SHH, purmorphamine, cyclopamine and RSpos were purchased from R&D Systems Inc. (Minneapolis, Minn.).
Cultured human CEC was washed with PBS, and then, rinsed with a lysis buffer containing PBS, 1% TRITON™ X-100, 0.5 M EDTA, phosphatase inhibitor cocktail 2 (Sigma-Aldrich) and […] (Roche). Detection of activated β-catenin (non-membrane-bound type) was implemented according to the protocol previously reported [Aghib D F et al., Exp Cell Res., 1995; 218: 359-369]. In brief, a cell lysate treated with Con A Sepharose™ 4B (GE Healthcare) was incubated at 4° C. for 1 hour. After centrifugation at 4° C. for 10 minutes, the supernatant was transferred into a new tube, Con A Sepharose™ was added to each tube, and the resultant was incubated at 4° C. for 1 hour. Finally, after simple centrifugation, the supernatant was transferred into a new tube, and the protein concentration was determined.
Then, the protein was separated by SDS-PAGE, and transferred to a PVDF membrane. […]

[5] = tested on: corneal endothelial cell of rabbit sclerocorneal section; assay: Organ culture of rabbit sclerocorneal section with R-spondin 1: Ki67-positive cell rate; assay type: cell-based, white rabbit; conditions: control about 1.0%
Protocol: Eyeballs of white rabbit (Nacalai) euthanized for another object were purchased, and a sclerocorneal section was prepared. The sclerocorneal section was cultured in an incubator at 37° C. for 1 week in DMEM (INVITROGEN, catalog No.: 12320) and 10% fetal bovine serum (FBS) (BIOWEST, catalog No.: 51820-500). […] A corneal endothelial cell was subjected to nuclear staining with DAPI, and the Ki67-positive cell rate was calculated. In addition, a corneal endothelial cell was immunostained with ZO-1, and the cell density was calculated.

B1: R-spondin 1: Recombinant Human R-spondin 1 (R&D Cat. 4645-RS); ligand of GPR49/LGR5 (protein, listed as Homo sapiens)
chain: MRLGLCVVALVLSWTHLTISSRGIKGKRQRRISAEGSQACAKGCELCSEVNGCLKCSPKLFILLERNDIRQVGVCLPSCPPGYFDARNPDMNKCIKCKIEHCEACFSHNFCTKCKEGLYLHKGRCYPACPEGSSAANGTMECSSPAQCEMSEWSPWGPCSKKQQLCGFRRGSEERTRRVLHAPVGDHAACSDTKETRRCTVRRVPCPEGQKRRKGGQGRRENANRNLARKESKEAGAGSRRRKGQQQQQQQGTVGPLTSAGPA
EdU-positive cell/DAPI as compared with a control [1]: increased two times; also recorded: increased twice
cell density as compared with a control [2]: 1.3 times
cell morphology / in vitro CEC differentiation (phase contrast) ([3]; 50 ng/ml (FIG. 6C-B)): compact and uniform hexagonal cell having a smaller size
cell form in secondary culture of human CEC ([3]; RSPO1 50 ng/ml (FIG. 6B-E), without RSPO1 fibroblast-like phenotype): maintained its hexagonal form
morphology of a cell ([3]; RSPO1 50 ng/ml, 7 days, non-addition group differentiated into fibroblast-like cells): maintained in a cobblestone manner
cell density as compared with a non-treated cell ([3]; secondary culture of human CEC, RSPO1 50 ng/ml): increased
protein level of cytosol β-catenin and p-LRP6 ([4]; cell transfected with GPR49/LGR5 and treated with RSPO1 (50 ng/ml), as compared with NT cell): clearly decreased
protein level of cytosol β-catenin and p-LRP6 ([4]; cells transfected with NT and GPR49/LGR5, treated with RSPO1 (50 ng/ml), as compared with cell group not treated with RSPO1): decreased
rate of a Ki67-positive cell ([5]; 1 ng/ml R-spondin 1, 1 week): 4.49%
rate of a Ki67-positive cell ([5]; 10 ng/ml R-spondin 1, 1 week): 10.58%
rate of a Ki67-positive cell ([5]; 100 ng/ml R-spondin 1, 1 week): 7.94%
